Laboratory results reported in patent US7741276B2, “Use of interleukin-18 inhibitors to inhibit tumor metastasis” (Ares Trading S.A., priority 1999, dated 2010).
Values joined by “and” are separate entries in the source; they are usually repeats but may differ in a detail not shown here. Equal entries are not always repeated. Marks after values point to notes of the source that are not given here.

What was measured:
[1] = tested on: B16M cell adhesion to IL-18-treated HSE; test: B16M cell adhesion to IL-18-treated HSE; type: cell-based, mouse
Method: FIG. 4. In vitro B16M cells adhesion to IL-18-treated HSE. HSE cells were incubated with 1 ng/ml recombinant murine IL-18 for 6 hours. In some experiments, 10 μg/ml TNF-sRp55 or 100 ng/ml IL-1Ra was added 10 min before IL-18.In other experiments, 10 μg/ml anti-VCAM-1 antibody or a similar concentration of non-specific anti-mouse lgG was added to HSE cells 30 min before B16M cells. Then, B16M cell adhesion percentage was determined as described hereinbelow in the examples. The results represent the mean ±SD of three separate experiments, each in sextuplicate (n=18). Differences in the degree of adhesion with respect to basal medium-treated HSE (*) and to IL-18-treated HSE (**) were statistically significant (P<0.01), according to the Student's two-tailed, unpaired t-test.
(§1) HSE was separated from syngeneic mice, identified and cultured as previously described (26). B16M cells were labeled with 2′,7′-bis-(2-carboxyethyl)-5,6-carboxyfluorescein-acetoxymethylester solution (BCECF-AM, Molecular Probes, Eugene, Oreg.) as reported (16). Then, 2×10^5 cells/well were added to 24-well-plate cultured HSE and 8 min later, wells were washed three times with fresh medium. The number of adhering cells was determined using a quantitative method based on a previously described fluorescence measurement system (16). In some experiments, HSE cells were pre-incubated with B16M-CM for several hours before addition of B16M cells.

[2] = tested on: B16M cell adhesion to HSE cells; test: B16M cell adhesion to B16M-CM-treated primary HSE cultures; type: cell-based, mouse; conditions: for % Melanoma Cell Adhesion: HSE stimulated with B16-CM
Method: FIG. 2 Effect of irreversible ICE inhibitor and anti-mouse IL-18 antibody on B16M cell adhesion to HSE cells, and IL-1β and TNF-α production from untreated and B16M-CM-treated HSE. Cultured HSE cells were incubated in the presence of B16M-CM for 10 h. In some experiments, both untreated and treated HSE cells received 10 μM ICEi or 10 μg/ml anti-mouse IL-18 antibody before B16M-CM. The percentage of B16M cells adhered to HSE substrate was calculated as relative value with respect to the initial number of added cells. In addition, the culture supernatants were recovered before adhesion to determine IL-1β and TNF-α concentration by ELISA. Data represent the mean ±SD of 4 separate experiments, each in sextuplicate (n=24). The augmentation of B16M cell adhesion to B16M-CM-treated HSE and of IL-1β or TNF-α production with respect to untreated HSE (*P<0.01) were statistically significant according to the Student's two-tailed, unpaired t-test.
(§2) FIG. 3. Effect of ICEi on B16M cell adhesion to B16M-CM-treated HSE in vitro. HSE cells were incubated with basal medium or B16M-CM for 8 h. Some HSE cells received 10 μM ICEi for 18 h before B16M-CM. In addition, 1 ng/ml recombinant murine IL-1β was also added to some HSE cells together with B16M-CM for 8 h. In other experiments, HSE cells received 1 ng/ml murine IL-1β or 100 pg/ml TNF-α for 6 h, and 10 μg/ml rabbit anti-mouse IL-18 polyclonal antibody was added or not 1 h before the cytokine treatment. Non-specific IgG polyclonal antibody was also added to untreated and cytokine-treated HSE cells. Then, HSE cells were washed and BCEFCF-AM-labeled B16M cells were added and washed again 8 min later. The percentage of B16M cells adhered to HSE substrate was calculated as relative value with respect to the initial number of added cells. The results represent the mean ±SD of three separate experiments, each in sextuplicate (n=18). Differences in the degree of adhesion with respect to untreated HSE (*) and to IL-1β or TNF-α-treated HSE (**) were statistically significant (P<0.01), according to the Student's two-tailed, unpaired t-test.
Culture of B16M cells. B16M cells were cultured, maintained and passaged as previously described (11). B16M conditioned medium (B16M-CM) was prepared as follows: 5×10^5 cells were plated in a 25 cm^2 T-flask and cultured for 24 h. After which, cells were cultured for an additional period of 24 h in 5 ml serum-free medium (final cellular density of 6×10^4 cells/cm^2). Supernatants were collected, diluted 3:1 in fresh serum-free medium and passed through a 0.22 Ïm filter.
(§3) HSE was separated from syngeneic mice, identified and cultured as previously described (26). […] The number of adhering cells was determined using a quantitative method based on a previously described fluorescence measurement system (16). […]

[3] = tested on: B16M cell adhesion to IL-1β or TNF-α-treated HSE; test: B16M cell adhesion to IL-1β- or TNF-α-treated HSE; type: cell-based, mouse; conditions: 1 ng/ml murine IL-1β
Method: as §2, §3

circulating IFN-γ = conditions: administration of IL-18BP to mice; cited from earlier work
IL-18 = target: T1, IL-18 (Homo sapiens, UniProt Q14116); conditions: in vitro; cited from earlier work
T1 sequence (Q14116 37-193): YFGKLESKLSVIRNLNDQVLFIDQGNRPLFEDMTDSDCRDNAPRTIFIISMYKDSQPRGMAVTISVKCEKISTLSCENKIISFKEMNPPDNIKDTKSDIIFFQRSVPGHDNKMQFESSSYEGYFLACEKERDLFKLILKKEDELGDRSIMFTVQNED

B16M cells = test: Adhesion of pre-treated B16M cells (IL-18 or supernatant of B16M-CM-treated HSE) to HSE; type: cell-based, mouse; conditions: B16M cells incubated with 1 ng/ml murine IL-18 for 6 h
Method: However, local production of IL-18 may influence B16M cell behavior during its transit or arrest in the hepatic microvasculature.
as §1

Molecule: IL-1Ra: recombinant human IL-1 receptor antagonist, gift from The Upjohn Co. [reference compound]
- inhibition of IL-18-induced B16M cell adhesion to HSE ([1]; 100 ng/ml IL-1Ra added 10 min before IL-18): neither TNF-sR p55 nor IL-1Ra were able to inhibit it

B1: TNF-sR p55: human p55 TNF soluble receptor, gift from Serono Inc. (protein, UniProt P19438 30-211, looked up)
extracellular domain: LVPHLGDREKRDSVCPQGKYIHPQNNSICCTKCHKGTYLYNDCPGPGQDTDCRECESGSFTASENHLRHCLSCSKCRKEMGQVEISSCTVDRDTVCGCRKNQYRHYWSENLFQCFNCSLCLNGTVHLSCQEKQNTVCTCHAGFFLRENECVSCSNCKKSLECTKLCLPQIENVKGTEDSGTT
modifications: extracellular domain
- inhibition of IL-18-induced B16M cell adhesion to HSE ([1]; 10 μg/ml TNF-sRp55 added 10 min before IL-18): neither TNF-sR p55 nor IL-1Ra were able to inhibit it

B2: murine IL-1β: recombinant murine IL-1β from R&D System Inc. (protein, UniProt P10749 118-269, looked up)
Interleukin-1 beta: VPIRQLHYRLRDEQQKSLVLSDPYELKALHLNGQNINQQVIFSMSFVQGEPSNDKIPVALGLKGKNLYLSCVMKDGTPTLQLESVDPKQYPKKKMEKRFVFNKIEVKSKVEFESAEFPNWYISTSQAEHKPVFLGNNSGQDIIDFTMESVSS
- compensation of the blocking effect of ICEi on HSE adhesiveness ([2]; 1 ng/ml murine IL-1β added with B16M-CM for 8 h to ICEi-treated HSE): did not compensate
- B16M cell adhesion to IL-1β-treated control HSE [3]: significant B16M cell adhesion increase

B3: IL-18BP: IL-18 binding protein, purified from urine, cloned and expressed in COS7 cells; binds IL-18 and blocks its activity (protein, UniProt O95998 31-194, looked up)
Interleukin-18-binding protein: TPVSQTTTAATASVRSTKDPCPSQPPVFPAAKQCPALEVTWPEVEVPLNGTLSLSCVACSRFPNFSILYWLGNGSFIEHLPGRLWEGSTSRERGSTGTQLCKALVLEQLTPALHSTNFSCVLVDPEQVVQRHVVLAQLWAGLRATLPPTQEALPSSHSSPQQQG
- circulating IFN-γ following LPS (circulating IFN-γ): abrogated
- IL-18 activation of NF-κB (IL-18): abolished
- IL-18 induction of IL-8 (IL-18): abolished
- IL-18 induction of interferon-γ (IFN-γ) (IL-18): abolished
- % Melanoma Cell Adhesion ([2]; IL-18BP 1 ng/ml): 15.00 ± 2.5** %
- % Melanoma Cell Adhesion ([2]; IL-18BP 10 ng/ml): 8.70% and 8.70 ± 1.1** %
- inhibition of B16-CM-induced adhesion ([2]; IL-18BP 10 ng/ml, adhesion below basal medium level): 100%

B4: murine IL-18: recombinant murine IL-18 purchased from PeproTech (protein, UniProt P70380 36-192, looked up)
Interleukin-18: NFGRLHCTTAVIRNINDQVLFVDKRQPVFEDMTDIDQSASEPQTRLIIYMYKDSEVRGLAVTLSVKDSKMSTLSCKNKIISFEEMDPPENIDDIQSDLIFFQKRVPGHNKMEFESSLYEGHFLACQKEDDAFKLILKKKDENGDKSVMFTLTNLHQS
- B16M cell adhesion to HSE ([1]; HSE incubated with 1 ng/ml recombinant murine IL-18 for 6 hours, P<0.01): increased
- increase of B16M cell adhesion to untreated HSE (B16M cells): 2 fold
